Data as given in patent publication US20240010735A1 (EISAI R AND D MANAGEMENT, published 2024).

Key:
Experiment in all cases: ELISA: Fc-His proteins (1 nM) captured on anti-6-His antibody, antibody B 10 µg/mL with human IgG 100 µg/mL, HRP anti-human kappa light chain antibody, OD450 as % of mouse EphA4-Fc-His
[1] = target: T1, mouse EphA10 extracellular region-Fc-His protein (mouse; human, UniProt Q8BYG9 23-565)
T1 construct: extracellular domain; not shown: Fc region of human IgG1; histidine tag
T1 sequence (looked up): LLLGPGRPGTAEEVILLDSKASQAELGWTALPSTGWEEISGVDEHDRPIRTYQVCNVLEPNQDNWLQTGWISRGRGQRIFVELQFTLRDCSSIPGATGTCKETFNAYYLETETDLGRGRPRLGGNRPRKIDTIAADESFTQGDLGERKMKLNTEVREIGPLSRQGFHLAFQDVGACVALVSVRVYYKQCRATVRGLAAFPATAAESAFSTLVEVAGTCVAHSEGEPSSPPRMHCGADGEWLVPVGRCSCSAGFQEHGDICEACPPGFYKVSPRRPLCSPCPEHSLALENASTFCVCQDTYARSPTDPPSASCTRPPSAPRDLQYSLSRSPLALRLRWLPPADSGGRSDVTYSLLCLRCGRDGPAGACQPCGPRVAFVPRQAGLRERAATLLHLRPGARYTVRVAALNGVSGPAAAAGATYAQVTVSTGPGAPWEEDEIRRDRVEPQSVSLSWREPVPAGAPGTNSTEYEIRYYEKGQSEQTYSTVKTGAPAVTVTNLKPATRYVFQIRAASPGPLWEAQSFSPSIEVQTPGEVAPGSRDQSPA
Protocol: (§1) Rabbit anti-6-His antibodies (Bethyl Laboratories) were coated onto the wells of a 96-well plate (Nunc). After incubating at 4° C. overnight, the wells were blocked at room temperature for 1 hour by 1% Block Ace (DS Pharma Biomedical). After washing 3 times with 0.05% Tween 20/PBS (Thermo […]), each Eph receptor of mouse extracellular region-Fc-His protein (final concentration 1 nM) was seeded into each well, and incubated at room temperature for 1 hour. After washing 3 times, human IgG solution (100 μg/mL, Sigma) and antibody B (10 μg/mL) were supplemented to the wells, and incubated at room temperature for 1 hour. Horseradish peroxidase-labeled goat anti-human Kappa Light Chain antibody (IBL) was added, and incubated at room temperature for 1 hour. After washing 3 times, TMBZ (3,3′,5,5′-tetramethylbenzidine, Sigma) solution was added to the wells, and upon confirmation of modest coloring, an equal amount of quenching solution (1 N H₂SO₄, Wako Pure Chemicals) was added to the wells, and absorbance at 450 nm was read by a microplate reader (PerkinElmer).

[2] = target: T2, mouse EphA3 extracellular region-Fc-His protein (mouse; human, UniProt P29319 21-540)
T2 construct: extracellular domain; not shown: Fc region of human IgG1; histidine tag
T2 sequence (looked up): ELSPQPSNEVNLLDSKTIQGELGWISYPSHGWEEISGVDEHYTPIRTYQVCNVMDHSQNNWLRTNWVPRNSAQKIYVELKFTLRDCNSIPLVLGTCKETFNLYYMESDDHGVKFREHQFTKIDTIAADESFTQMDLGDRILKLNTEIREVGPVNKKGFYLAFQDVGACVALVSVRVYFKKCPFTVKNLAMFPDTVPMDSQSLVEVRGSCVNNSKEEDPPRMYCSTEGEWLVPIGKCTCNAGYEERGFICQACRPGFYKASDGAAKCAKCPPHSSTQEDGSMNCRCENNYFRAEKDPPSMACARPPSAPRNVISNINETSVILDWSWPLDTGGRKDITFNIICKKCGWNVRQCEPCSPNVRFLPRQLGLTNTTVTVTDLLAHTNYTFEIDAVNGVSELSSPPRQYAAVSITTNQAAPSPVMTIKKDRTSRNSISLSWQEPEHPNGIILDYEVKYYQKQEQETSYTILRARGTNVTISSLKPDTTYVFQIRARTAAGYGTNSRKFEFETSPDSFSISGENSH
Protocol: as §1

[3] = target: T3, mouse EphB4 extracellular region-Fc-His protein (mouse; human, UniProt P54761 16-539)
T3 construct: extracellular domain; not shown: Fc region of human IgG1; histidine tag
T3 sequence (looked up): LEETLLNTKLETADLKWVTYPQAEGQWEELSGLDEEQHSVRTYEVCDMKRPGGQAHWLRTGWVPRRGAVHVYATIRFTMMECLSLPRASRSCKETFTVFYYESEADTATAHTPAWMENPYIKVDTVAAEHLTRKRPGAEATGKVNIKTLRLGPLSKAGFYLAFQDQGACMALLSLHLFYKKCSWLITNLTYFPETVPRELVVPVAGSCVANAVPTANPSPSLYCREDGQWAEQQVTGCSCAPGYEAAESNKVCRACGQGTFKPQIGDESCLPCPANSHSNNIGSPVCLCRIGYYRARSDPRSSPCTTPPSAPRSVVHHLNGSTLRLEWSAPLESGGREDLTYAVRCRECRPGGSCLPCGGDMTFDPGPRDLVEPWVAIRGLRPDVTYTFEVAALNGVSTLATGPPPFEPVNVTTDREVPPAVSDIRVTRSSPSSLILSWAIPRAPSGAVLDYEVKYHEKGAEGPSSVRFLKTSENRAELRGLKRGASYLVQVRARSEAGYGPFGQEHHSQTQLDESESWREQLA
Protocol: as §1

[4] = target: T4, mouse EphA2 extracellular region-Fc-His protein (mouse, UniProt Q03145 26-538)
T4 construct: extracellular domain; Cloned into a pcDNA 3.1 vector separately from the other mouse Eph receptors; not shown: Fc; histidine tag
Protocol: as §1

Measured: binding result

T4 sequence (Q03145 26-538): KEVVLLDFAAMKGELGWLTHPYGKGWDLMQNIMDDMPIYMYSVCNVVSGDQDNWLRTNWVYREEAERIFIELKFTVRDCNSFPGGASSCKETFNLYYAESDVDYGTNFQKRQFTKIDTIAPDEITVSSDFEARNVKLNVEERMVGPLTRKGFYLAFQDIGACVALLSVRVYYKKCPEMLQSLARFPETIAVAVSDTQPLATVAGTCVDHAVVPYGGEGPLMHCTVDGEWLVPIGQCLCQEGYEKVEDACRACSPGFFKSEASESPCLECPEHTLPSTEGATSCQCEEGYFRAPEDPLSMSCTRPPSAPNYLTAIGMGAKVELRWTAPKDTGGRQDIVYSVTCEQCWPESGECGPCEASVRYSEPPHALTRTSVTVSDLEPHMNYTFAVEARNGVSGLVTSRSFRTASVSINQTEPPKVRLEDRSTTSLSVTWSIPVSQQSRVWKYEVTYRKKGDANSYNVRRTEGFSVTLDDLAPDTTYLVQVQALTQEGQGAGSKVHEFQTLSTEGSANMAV

B1: humanized anti-EphA4 monoclonal antibody (antibody B) (antibody, human IgG2, V domains shown)
VH: QVQLVESGGGVVQPGRSLRLSCAVSGFSLTRFGVHWVRQAPGKGLEWVAVIWRGGSTDYNAAFMSRLTISKDNSKNTVYLQMNSLRAEDTAVYYCAKESLFGVYYDYGYYSMDYWGQGTTVTVSS
VL: DIQMTQSPSSLSASVGDRVTITCRASQEISGYLSWLQQKPGKAPKRLIYAASTLDSGVPSRFSGSRSGTEYTLTISSLQPEDFATYYCLQYASYPLTFGGGTKVEIKR
notes: expressed in Expi293F cells; also called humanized antibody of antibody A; HK2-42 / L1-8
no binding (tested: 10 µg/mL): [1] | [2] | [3] | [4]
